Measured values from ChEMBL document CHEMBL2073939, “Export pumps for anionic conjugates encoded by MRP genes” (Adv Enzyme Regul, 1999).

Assays:
[1] = substrate: CCCCC/C=C\C\C=C/C=C/C=C/[C@@H](SC[C@@H](NC(=O)CC[C@H](N)C(=O)O)C(=O)NCC(=O)O)[C@@H](O)CCCC(=O)O; assay: cells, lysate or membranes named
[2] = substrate: Cc1ccc(N(CC(=O)O)CC(=O)O)c(OCCOc2cc(-c3c4cc(Cl)c(=O)cc-4oc4cc(O)c(Cl)cc34)ccc2N(CC(=O)O)CC(=O)O)c1; assay: TP_TRANSPORTER: uptake in membrane vesicle from MRP1-expressing HeLa cells; format: functional, cell membranes

B1: Multidrug resistance-associated protein 1 (Mus musculus) (protein)
chain: MALRSFCSADGSDPLWDWNVTWHTSNPDFTKCFQNTVLTWVPCFYLWSCFPLYFFYLSRHDRGYIQMTHLNKTKTALGFFLWIICWADLFYSFWERSQGVLRAPVLLVSPTLLGITMLLATFLIQLERRKGVQSSGIMLTFWLVALLCALAILRSKIISALKKDAHVDVFRDSTFYLYFTLVLVQLVLSCFSDCSPLFSETVHDRNPCPESSASFLSRITFWWITGMMVHGYRQPLESSDLWSLNKEDTSEEVVPVLVNNWKKECDKSRKQPVRIVYAPPKDPSKPKGSSQLDVNEEVEALIVKSPHKDREPSLFKVLYKTFGPYFLMSFLYKALHDLMMFAGPKILELIINFVNDREAPDWQGYFYTALLFVSACLQTLALHQYFHICFVSGMRIKTAVVGAVYRKALLITNAARKSSTVGEIVNLMSVDAQRFMDLATYINMIWSAPLQVILALYFLWLSLGPSVLAGVAVMILMVPLNAVMAMKTKTYQVAHMKSKDNRIKLMNEILNGIKVLKLYAWELAFQDKVMSIRQEELKVLKKSAYLAAVGTFTWVCTPFLVALSTFAVFVTVDERNILDAKKAFVSLALFNILRFPLNILPMVISSIVQASVSLKRLRIFLSHEELEPDSIERRSIKSGEGNSITVKNATFTWARGEPPTLNGITFSIPEGALVAVVGQVGCGKSSLLSALLAEMDKVEGHVTLKGSVAYVPQQAWIQNDSLRENILFGHPLQENYYKAVMEACALLPDLEILPSGDRTEIGEKGVNLSGGQKQRVSLARAVYSNSDIYLFDDPLSAVDAHVGKHIFEKVVGPMGLLKNKTRILVTHGISYLPQVDVIIVMSGGKISEMGSYQELLDRDGAFAEFLRTYANAEQDLASEDDSVSGSGKESKPVENGMLVTDTVGKHLQRHLSNSSSHSGDTSQQHSSIAELQKAGAKEETWKLMEADKAQTGQVQLSVYWNYMKAIGLFITFLSIFLFLCNHVSALASNYWLSLWTDDPPVVNGTQANRNFRLSVYGALGILQGAAIFGYSMAVSIGGIFASRRLHLDLLYNVLRSPMSFFERTPSGNLVNRFSKELDTVDSMIPQVIKMFMGSLFSVIGAVIIILLATPIAAVIIPPLGLVYFFVQRFYVASSRQLKRLESVSRSPVYSHFNETLLGVSVIRAFEEQERFIHQSDLKVDENQKAYYPSIVANRWLAVRLECVGNCIVLFAALFAVISRHSLSAGLVGLSVSYSLQITAYLNWLVRMSSEMETNIVAVERLKEYSETEKEAPWQIQETAPPSTWPHSGRVEFRDYCLRYREDLDLVLKHINVTIEGGEKVGIVGRTGAGKSSLTLGLFRINESAEGEIIIDGVNIAKIGLHNLRFKITIIPQDPVLFSGSLRMNLDPFSQYSDEEVWMALELAHLKGFVSALPDKLNHECAEGGENLSVGQRQLVCLARALLRKTKILVLDEATAAVDLETDNLIQSTIRTQFEDCTVLTIAHRLNTIMDYTRVIVLDKGEVRECGAPSELLQQRGIFYSMAKDAGLV
[1]
  Km: 0.1 µM

B2: Multidrug resistance-associated protein 1 (Homo sapiens) (protein)
chain: MALRGFCSADGSDPLWDWNVTWNTSNPDFTKCFQNTVLVWVPCFYLWACFPFYFLYLSRHDRGYIQMTPLNKTKTALGFLLWIVCWADLFYSFWERSRGIFLAPVFLVSPTLLGITMLLATFLIQLERRKGVQSSGIMLTFWLVALVCALAILRSKIMTALKEDAQVDLFRDITFYVYFSLLLIQLVLSCFSDRSPLFSETIHDPNPCPESSASFLSRITFWWITGLIVRGYRQPLEGSDLWSLNKEDTSEQVVPVLVKNWKKECAKTRKQPVKVVYSSKDPAQPKESSKVDANEEVEALIVKSPQKEWNPSLFKVLYKTFGPYFLMSFFFKAIHDLMMFSGPQILKLLIKFVNDTKAPDWQGYFYTVLLFVTACLQTLVLHQYFHICFVSGMRIKTAVIGAVYRKALVITNSARKSSTVGEIVNLMSVDAQRFMDLATYINMIWSAPLQVILALYLLWLNLGPSVLAGVAVMVLMVPVNAVMAMKTKTYQVAHMKSKDNRIKLMNEILNGIKVLKLYAWELAFKDKVLAIRQEELKVLKKSAYLSAVGTFTWVCTPFLVALCTFAVYVTIDENNILDAQTAFVSLALFNILRFPLNILPMVISSIVQASVSLKRLRIFLSHEELEPDSIERRPVKDGGGTNSITVRNATFTWARSDPPTLNGITFSIPEGALVAVVGQVGCGKSSLLSALLAEMDKVEGHVAIKGSVAYVPQQAWIQNDSLRENILFGCQLEEPYYRSVIQACALLPDLEILPSGDRTEIGEKGVNLSGGQKQRVSLARAVYSNADIYLFDDPLSAVDAHVGKHIFENVIGPKGMLKNKTRILVTHSMSYLPQVDVIIVMSGGKISEMGSYQELLARDGAFAEFLRTYASTEQEQDAEENGVTGVSGPGKEAKQMENGMLVTDSAGKQLQRQLSSSSSYSGDISRHHNSTAELQKAEAKKEETWKLMEADKAQTGQVKLSVYWDYMKAIGLFISFLSIFLFMCNHVSALASNYWLSLWTDDPIVNGTQEHTKVRLSVYGALGISQGIAVFGYSMAVSIGGILASRCLHVDLLHSILRSPMSFFERTPSGNLVNRFSKELDTVDSMIPEVIKMFMGSLFNVIGACIVILLATPIAAIIIPPLGLIYFFVQRFYVASSRQLKRLESVSRSPVYSHFNETLLGVSVIRAFEEQERFIHQSDLKVDENQKAYYPSIVANRWLAVRLECVGNCIVLFAALFAVISRHSLSAGLVGLSVSYSLQVTTYLNWLVRMSSEMETNIVAVERLKEYSETEKEAPWQIQETAPPSSWPQVGRVEFRNYCLRYREDLDFVLRHINVTINGGEKVGIVGRTGAGKSSLTLGLFRINESAEGEIIIDGINIAKIGLHDLRFKITIIPQDPVLFSGSLRMNLDPFSQYSDEEVWTSLELAHLKDFVSALPDKLDHECAEGGENLSVGQRQLVCLARALLRKTKILVLDEATAAVDLETDDLIQSTIRTQFEDCTVLTIAHRLNTIMDYTRVIVLDKGEIQEYGAPSDLLQQRGLFYSMAKDAGLV
[2]
  Km: 12 µM
